Data reported in patent US20250269018A1, “COMBINED CANCER THERAPY WITH AN EPITHELIAL CELL ADHESION MOLECULE (EPCAM) INHIBITOR AND A HEPATOCYTE GROWTH FACTOR RECEPTOR (HGFR) INHIBITOR” (ACADEMIA SINICA, priority 2021, published 2025).

Columns and labels:
HGFR signaling = experiment: Western blotting of phosphorylated ERK and AKT in HT29 cells; type: cell-based, human; conditions: SU11274 with EpEX-His, FIG. 2C
Procedure: FIGS. 2A to 2K. EpEX promotes tumor progression via HGFR signaling. (FIG. 2A) WT or EpCAM knockout (KO) HCT116 and HT29 cells treated with HGF (0.5 nM) for 15 min. The phosphorylation of HGFR, AKT, and ERK was examined by Western blotting. (FIG. 2B) WT or KO HCT116 and HT29 cells were treated with HGF (0.5 nM) with 2% FBS for the indicated times. Cell growth was examined by the WST-1 assay. (FIG. 2C) Starved HCT116 cells were treated with HGFR inhibitor SU11274 (SU, 10 μM) for 1 h then treated with 50 nM of EpEX-His for 15 min. The levels of phosphorylated HGFR, EGFR, AKT, and ERK were examined by Western blotting. HCT116 and HT29 cells were treated with 50 nM EpEX and SU (10 μM). […]
Whole cell extracts were prepared with RIPA buffer (50 mM Tris-HCl pH7.4, 1% NP-40, 0.5% Sodium deoxycholate, 0.1% SDS, 150 mM NaCl, 2 mM EDTA, 50 mM NaF). Protein concentrations of the cell lysates were determined by the Bradford assay. […]
Appropriate horseradish peroxidase-associated secondary antibodies (Millipore) were applied and the membranes were incubated at room temperature (RT) for 1 h. The protein bands were subsequently visualized with chemiluminescence reagents (Millipore) and detected on a BioSpectrum 600 Imaging system (UVP). The protein level was quantified from band intensity using Gel-Pro analyzer 3.1 (Media Cybernetics).

HCT116 or HT29 = experiment: Metastatic and orthotopic animal models of colon cancer, overall statements
Procedure: Colon cancer HCT116 or HT29 (5×10^6 cells/mouse) in PBS were injected into 4-6-week-old female NOD/SCID mice through the tail vein. Mice were then randomly assigned to different treatment groups by body weight. After 3 days, antibodies were administered through tail vein injection twice a week for four consecutive weeks. Crizotinib was administered daily by oral gavage for 5 days per week (treatment for four weeks). For the therapeutic study, tumor-bearing mice were treated with isotype control IgG1 (15 mg/kg), crizotinib (20 mg/kg), EpAb2-6 (15 mg/kg), or crizotinib (20 mg/kg) combined with EpAb2-6 (15 mg/kg). Mouse survival rate were measured.
Orthotopic tumor models were created as previously reported (Chen et al., 2020). Briefly, NSCID mice were used for orthotopic implantation of HCT116 cells previously infected with Lenti-luc virus (lentivirus containing luciferase gene). The mice were anesthetized by i.p. injection ofAvertin, 2,2,2-Tribromo-ethanol (Sigma-Aldrich) at a dose of 250 mg/kg. Tumor development was monitored by bioluminescence imaging. For the therapeutic study, tumor-bearing mice were treated with isotype control IgG1 (15 mg/kg), crizotinib (20 mg/kg), EpAb2-6 (15 mg/kg), or crizotinib (20 mg/kg) combined with EpAb2-6 (15 mg/kg). Tumor progression was monitored by quantification of bioluminescence. Mouse survival was also monitored.

[1] = tested on: GSK3β, active β-catenin and Snail; experiment: Western blotting of GSK3β, active β-catenin, Snail and EMT proteins in HCT116 cells; type: cell-based, human
HT29-Luc cells = experiment: Orthotopic animal model, HT29-Luc; conditions: FIG. 9H, 9I
Procedure: (FIG. 9C) Timeline of the experiment to evaluate EpAb2-6 and/or crizotinib in the in orthotopic animal models. (FIG. 9D) NOD/SCID mice received orthotopic implantation of HCT116-Luc cells and then were treated with control IgG (normal mouse IgG, NMIgG), crizotinib, EpAb2-6, or crizotinib combined with EpAb2-6 starting at 3 days after tumor inoculation (n=5). Tumor growth was monitored by examining bioluminescence with the IVIS 200 Imaging System. (FIG. 9E) HCT116-Luc tumor cells monitored by bioluminescence quantification. […] (FIG. 9H) NOD/SCID mice were orthotopically implanted with HT29-Luc cells and then treated with control IgG, crizotinib, EpAb2-6, or crizotinib combined with EpAb2-6 starting at 3 days after tumor inoculation (n=5). Tumor growth was monitored by examining bioluminescence with an IVIS 200 Imaging System. (FIG. 9I) HT29-Luc tumor cells monitored by bioluminescence quantification.
Orthotopic tumor models were created as previously reported (Chen et al., 2020). Briefly, NSCID mice were used for orthotopic implantation of HCT116 cells previously infected with Lenti-luc virus (lentivirus containing luciferase gene). […] Tumor development was monitored by bioluminescence imaging. […] Tumor progression was monitored by quantification of bioluminescence. Mouse survival was also monitored.

EpCAM = molecular target: T1, EpCAM (Homo sapiens, UniProt P16422); experiment: Antibody binding to EpCAM wild-type and mutants expressed in HEK293T cells (immunofluorescence, flow cytometry, cellular ELISA); conditions: conclusion from deletion and point mutants
T1 sequence (P16422 24-314): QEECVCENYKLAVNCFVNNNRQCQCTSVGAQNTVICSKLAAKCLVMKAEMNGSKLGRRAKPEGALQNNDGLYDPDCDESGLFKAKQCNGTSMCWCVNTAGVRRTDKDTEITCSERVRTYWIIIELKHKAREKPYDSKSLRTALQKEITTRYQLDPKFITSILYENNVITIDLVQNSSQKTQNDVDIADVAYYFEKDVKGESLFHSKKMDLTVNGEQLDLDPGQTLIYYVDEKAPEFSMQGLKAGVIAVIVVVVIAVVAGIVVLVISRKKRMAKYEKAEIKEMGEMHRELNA
Procedure: FIGS. 8A to 8G. EpAb2-6 binds to both EGF-like domain I and II of EpCAM. HEK293T cells were transfected with full length or EGF like-domain deletion mutant EpCAM-V5. Antibody binding was assessed by (FIG. 8A) Western blotting, (FIG. 8B) flow cytometry, and (FIG. 8C) immunofluorescence. (FIG. 8D) EpCAM mutants were constructed with amino acid substitutions in the EGF-I (Y32A) and EGF-II (L94A, Y95A, or D96A) domains. EpCAM wild-type and mutant proteins were expressed in HEK293T cells. Binding of MT201, EpAb2-6 and EpAb23-1 to EpCAM wild-type and mutants were evaluated by (FIG. 8E) immunofluorescence, (FIG. 8F) flow cytometry, and (FIG. 8G) cellular ELISA.
A previous study identified the binding epitope of EpAb2-6 antibody as the LYD motif in EpCAM, which corresponds to amino acid residues 94-96; in particular, residue 95 (Y95) plays a major role in EpAb2-6 binding (Liao et al., 2015). […] Therefore, we wanted to determine whether the antibody binds to EpCAM at both EGF-like domains of EpEX (FIG. 8A, FIG. 8B, FIG. 8C). To confirm that EpAb2-6 recognizes the LYD motif in EpCAM, we constructed cDNA sequences encoding the first (aa 27-59; EGF-I domain) and second (aa 66-135; EGF-II/TY domain) EGF-like repeats of EpCAM. PCR-based site-directed mutagenesis was then used to introduce mutations into each domain (FIG. 8D). The reactivity of EpAb2-6 antibody toward these EpCAM mutants was evaluated by immunofluorescence (FIG. 8E), flow cytometry (FIG. 8F), and cellular ELISA (FIG. 8G).

Cc1[nH]c(C=C2C(=O)Nc3ccc(S(=O)(=O)N(C)c4cccc(Cl)c4)cc32)c(C)c1C(=O)N1CCN(C)CC1 (stereo in doubt) [SU11274, (3Z)-N-(3-Chlorophenyl)-3-({3,5-dimethyl-4-[(4-methylpiperazin-1-yl)carbonyl]-1H-pyrrol-2-yl}methylene)-N-methyl-2-oxo-2,3-dihydro-1H-indole-5-sulfonamide]
EpEX-mediated ERK and AKT phosphorylation (HGFR signaling): attenuate EpEX-mediated ERK and AKT phosphorylation

B1: EpAb2-6: anti-EpCAM neutralizing monoclonal antibody targeting EpEX; VH SEQ ID NO: 15, VL SEQ ID NO: 16 (antibody, listed as Homo sapiens, V domains shown)
VH: VKLQESGPELKKPGETVKISCKASGYTFTDYSMHWVKQAPGKGLKWMGWINTETGEPTYADDFKGRFAFSLETSASTAYLQINNLKNEDTATYFCARTAVYWGQGTTVTVSS
VL: DIQMTQSPSSLSASLGERVSLTCRASQEISVSLSWLQQEPDGTIKRLIYATSTLDSGVPKRFSGSRSGSDYSLTISSLESEDFVDYYCLQYASYPWTFGGGTKLEIKRADAAPTVS
survival (HCT116 or HT29): higher median survival than the control IgG- or crizotinib-treated groups
tumor progression (HCT116 or HT29): much slower tumor progression
Active β-catenin and Snail steady-state protein levels ([1]; 10 μM MG132 and EpAb2-6 for 6 h, FIG. 6I): reduced
activating phosphorylation of GSK3β at Y216 (active GSK3β) ([1]; 24 h, FIG. 6H): increased activating phosphorylation of the protein at Y216
suppressive phosphorylation of GSK3β at S9 (inactive GSK3β) ([1]; 24 h, FIG. 6H): decreased suppressive phosphorylation of GSK3β at S9
levels of E-cadherin ([1]; 24 h, vs control IgG, FIG. 6G): increased the levels of E-cadherin
levels of Snail and the active β-catenin ([1]; 24 h, vs control IgG, FIG. 6G): decreasing Snail and the active β-catenin
bioluminescence intensities (HT29-Luc cells): significantly decreased compared to the control IgG or crizotinib alone groups
EpEX domains and residues bound (EpCAM): binds to the EGF-I and EGF-II domains of EpEX, respectively targeting amino acid residues Y32 and Y95
